This is an account of results in US20190216947A1.

One experiment concerns the target Human CD47 (human) (UniProt Q08722). As to the kind of experiment: SPR. A general note: Surface plasmon resonance follows binding to a sensor surface in real time, without labels.
Another experiment addresses Mouse CD47 (mouse) (UniProt Q61735). As to the kind of experiment: SPR.

Sequence of Human CD47 (human) (Q08722 19-139 limits assumed): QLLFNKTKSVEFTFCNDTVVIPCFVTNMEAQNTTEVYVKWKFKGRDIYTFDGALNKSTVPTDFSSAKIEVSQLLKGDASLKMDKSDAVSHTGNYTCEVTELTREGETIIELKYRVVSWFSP
Sequence of Mouse CD47 (mouse) (Q61735 19-140 limits assumed): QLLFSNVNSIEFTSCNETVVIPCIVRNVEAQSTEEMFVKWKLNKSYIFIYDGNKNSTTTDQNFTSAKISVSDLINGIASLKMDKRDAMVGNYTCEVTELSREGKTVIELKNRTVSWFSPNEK

In the case of monomeric SIRPα (mSIRPα) (receptor), in the experiment with Human CD47 (human), the Kd – broadly, a measure of binding affinity in units of concentration – amounted to 0.0054 nM; the koff (usually a measure of how fast the partners let go of each other) was 3.7e-05 s⁻¹; the kon – broadly, a measure of how fast the partners come together – turned out to be 7e+06 M⁻¹ s⁻¹. In the experiment with Mouse CD47 (mouse), this substance displayed a Kd of 6.2 nM, a dissociation rate constant (koff) of 0.011 s⁻¹ and a kon of 1.8e+06 M⁻¹ s⁻¹.
